Laboratory results from US20230220042A1 (SHANGHAI JIAO TONG UNIVERSITY SCHOOL OF MEDICINE, published 2023).
Positions count from the first letter of the chain named. In names and notes the source's numbering stands.

T1: Biotin-FcγRIIB (human, UniProt P31994 43-217, limits assumed, biotin-labelled)
T1 construct: Bought, biotin-labelled; used at 1 µg/ml for staining and sorting; also called human FcγRIIB; CD32b
T1 sequence (looked up): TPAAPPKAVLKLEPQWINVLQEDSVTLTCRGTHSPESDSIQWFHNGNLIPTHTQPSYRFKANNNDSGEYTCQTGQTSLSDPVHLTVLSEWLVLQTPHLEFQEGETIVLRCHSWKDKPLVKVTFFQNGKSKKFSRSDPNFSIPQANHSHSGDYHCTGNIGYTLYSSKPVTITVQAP

T2: Biotin-FcγRIIB (human, UniProt P31994 43-217, limits assumed, biotin label)
T2 construct: Soluble labelled protein used to stain and sort the display cells; also called human FcγRIIB; CD32b
T2 sequence (looked up): T1 sequence (looked up)

B1: human IgG2 anti-mouse CD40 surface displayed antibody, Fc mutant P271G (antibody, name in EU numbering)
light chain (with the P2A rest): DTVLTQSPALAVSPGERVTISCRASDSVSTLMHWYQQKPGQQPKLLIYLASHLESGVPARFSGSGSGTDFTLTIDPVEADDTATYYCQQSWNDPWTFGGGTKLELKRTVAAPSVFIFPPSDEQLKSGTASVVCLLNNFYPREAKVQWKVDNALQSGNSQESVTEQDSKDSTYSLSSTLTLSKADYEKHKVYACEVTHQGLSSPVTKSFNRGECGSGATNFSLLKQAGDVEENPG
heavy chain: EVQLVESDGGLVQPGRSLKLPCAASGFTFSDYYMAWVRQAPTKGLEWVASISYDGSSTYYRDSVKGRFTISRDNAKSTLYLQMDSLRSEDTATYYCGRHSSYFDYWGQGVMVTVSSASTKGPSVFPLAPCSRSTSESTAALGCLVKDYFPEPVTVSWNSGALTSGVHTFPAVLQSSGLYSLSSVVTVPSSNFGTQTYTCNVDHKPSNTKVDKTVERKCCVECPPCPAPPVAGPSVFLFPPKPKDTLMISRTPEVTCVVVDVSHEDGEVQFNWYVDGVEVHNAKTKPREEQFNSTFRVVSVLTVVHQDWLNGKEYKCKVSNKGLPAPIEKTISKTKGQPREPQVYTLPPSREEMTKNQVSLTCLVKGFYPSDIAVEWESNGQPENNYKTTPPMLDSDGSFFLYSKLTVDKSRWQQGNVFSCSVMHEALHNHYTQKSLSLSPGKLEPPPSTVSNMATVAVLVVLGAAIVTGAVVAFVMKMRRRNTGGKGGDYALAPGSQTSDLSLPDCKVMVHDPHSLA
notes: as m1; positions are Eu numbers; copies: 2 + 2
B2: human IgG2 anti-mouse CD40 surface displayed antibody, Fc mutant S267E (antibody, name in EU numbering)
light chain (with the P2A rest): B1 light chain (with the P2A rest)
heavy chain: B1 heavy chain with S262E, G266P
notes: as for B1
B3: human IgG2 anti-mouse CD40 surface displayed antibody, Fc mutant P271A (antibody, name in EU numbering)
light chain (with the P2A rest): B1 light chain (with the P2A rest)
heavy chain: B1 heavy chain with G266A
notes: as for B1
B4: human IgG2 anti-mouse CD40 surface displayed antibody, Fc mutant P271V (antibody, name in EU numbering)
light chain (with the P2A rest): B1 light chain (with the P2A rest)
heavy chain: B1 heavy chain with G266V
notes: as for B1
B5: human IgG2 anti-mouse CD40 surface displayed antibody, S267E/S298G (antibody, name in EU numbering)
light chain (with the P2A rest): B1 light chain (with the P2A rest)
heavy chain: B1 heavy chain with S262E, G266P, S293G
notes: As m1 with the Fc mutations
B6: human IgG2 anti-mouse CD40 surface displayed antibody, L328W (antibody, name in EU numbering)
light chain (with the P2A rest): B1 light chain (with the P2A rest)
heavy chain: B1 heavy chain with G266P, L323W
notes: As m1 with the Fc mutation
B7: human IgG2 anti-mouse CD40 surface displayed antibody, P233G/S267E (antibody)
light chain (with the P2A rest): B1 light chain (with the P2A rest)
heavy: B1 heavy chain with P229G, S262E, G266P
notes: As m1 with the Fc mutations; copies: 2 + 2
B8: human IgG2 anti-mouse CD40 surface displayed antibody, S267E/A330S (antibody, name in EU numbering)
light chain (with the P2A rest): B1 light chain (with the P2A rest)
heavy chain: B1 heavy chain with S262E, G266P, A325S
notes: As m1 with the Fc mutations
B9: human IgG2 anti-mouse CD40 surface displayed antibody, P233G/S267E/S298G (antibody)
light chain (with the P2A rest): B1 light chain (with the P2A rest)
heavy: B1 heavy chain with P229G, S262E, G266P, S293G
notes: as for B7
B10: human IgG2 anti-mouse CD40 surface displayed antibody, Fc mutant P238Q/S267E (antibody, name in EU numbering)
light chain (with the P2A rest): B1 light chain (with the P2A rest)
heavy chain: B1 heavy chain with P233Q, S262E, G266P
notes: as for B1
B11: human IgG2 anti-mouse CD40 surface displayed antibody, Fc mutant L328W (antibody, name in EU numbering)
light chain (with the P2A rest): B1 light chain (with the P2A rest)
heavy chain: B1 heavy chain with G266P, L323W
notes: as for B1
B12: human IgG2 anti-mouse CD40 surface displayed antibody, Fc mutant L328P (antibody, name in EU numbering)
light chain (with the P2A rest): B1 light chain (with the P2A rest)
heavy chain: B1 heavy chain with G266P, L323P
notes: as for B1
B13: human IgG2 anti-mouse CD40 surface displayed antibody, Fc mutant S267E/P329R (antibody, name in EU numbering)
light chain (with the P2A rest): B1 light chain (with the P2A rest)
heavy chain: B1 heavy chain with S262E, G266P, P324R
notes: as for B1
B14: human IgG2 anti-mouse CD40 surface displayed antibody, Fc mutant P271G/I332L (antibody, name in EU numbering)
light chain (with the P2A rest): B1 light chain (with the P2A rest)
heavy chain: B1 heavy chain with I327L
notes: as for B1
B15: human IgG2 anti-mouse CD40 surface displayed antibody, Fc mutant L328A (antibody, name in EU numbering)
light chain (with the P2A rest): B1 light chain (with the P2A rest)
heavy chain: B1 heavy chain with G266P, L323A
notes: as for B1

molecular target: T1, Biotin-FcγRIIB; assay: FACS sorting of displayed Fc library on biotin-FcγRIIB, NGS

Row | Molecule | Increased factor b Site 1 (point mutation/wild-type) | Increased factor b Site 2 (point mutation/wild-type)
1 | B1 | 4.7 | 4.7
2 | B2 | 28.5 | –
3 | B3 | 0.1 | –
4 | B4 | – | 0.7

molecular target: T2, Biotin-FcγRIIB; assay: NGS of 3T3 display library IgG2_C01 flow-sorted for FcγRIIB binding
Source text: Then flow cytometry is used for sorting the cells with high affinity to FcγRIIB for two to three rounds. […] IgG2_C01 is a combined mutation (Type I) library having at most 1 mutation in each of the four regions of P233-V240, V266-P271, S298-T299, and G327-I332; IgG2_C02 is a cell library made by combining the combined mutation (Type II) libraries of four regions of P233-V240, V266-P271, S298-T299 and G327-I332 together and transferring it into 3T3 cells.

Row | Molecule | enrichment factor, percentage after 1st sorting/percentage before sorting [ratio] | enrichment factor, percentage after 2nd sorting/percentage after 1st sorting [ratio] | enrichment factor, percentage after 2nd sorting/percentage before sorting [ratio] | increased factor, mutant enrichment factor/wild-type enrichment factor [ratio] | percentage after 1st sorting [%] | percentage after 2nd sorting [%]
5 | B5 | 9.16 | 19.2 | 176 | 207 | 0.01 | 0.25
6 | B6 | 1.75 | 4.26 | 7.46 | 8.78 | 0.25 | 1.05
7 | B7 | 3.31 | 5.47 | 18.1 | 21.3 | 0.01 | 0.05
8 | B8 | – | 43.1 | – | – | 0 | 0.03
9 | B9 | 7.13 | 38.5 | 274 | 323 | 0.01 | 0.2

molecular target: T1, Biotin-FcγRIIB; assay: magnetic sorting on biotin-FcγRIIB with unlabelled activating FcγRs, NGS; LibraryMix #4
Protocol: (§1) 3T3 cells were collected by trypsin digestion, and a single cell suspension was prepared. […] The cells were incubated for 15 minutes on ice and then washed twice with MACS buffer and re-suspended in 100 μl MACS buffer. Twenty-five μl anti-Biotin magnetic beads were added, and the cells were incubated for 15 minutes on ice and then washed once with MACS buffer and re-suspended to 500 μl, and added to the LS column put in the magnetic field. The effluent was collected, washed with 3 mL of MACS buffer and collected; The LS column was then removed out of the magnetic field, and 5 mL of MACS buffer was used to rapidly elute the remaining cells from the sorting column to collect positive cells, which are the high I/A ratio cells.
(§2) The high-FcγRIIB-affinity cells obtained from the above flow cytometry sorting are further sorted by magnetic-activated sorting. The cells are incubated with the mixture of Biotin-labeled FcγRIIB and non-labeled activating FcγRs, and then the labeled cells are sorted by anti-Biotin magnetic beads. The enrichment ratios after sorting relative to before sorting are analyzed by NGS.

Row | Molecule | Enrichment factor (percentage after sorting/percentage before sorting) | Increased factor (mutation enrichment factor/wild-type enrichment factor) | Percentage after sorting/unbinding percentage | Percentage before sorting/unbinding percentage
10 | B1 | 3.66 | 3.89 | 19 | 5.18
11 | B10 | 3.7 | 3.93 | 4.36 | 1.18
12 | B2 | 2.86 | 3.04 | 52.6 | 18.4
13 | B11 | 4.26 | 4.53 | – | –
14 | B12 | 2.16 | 2.3 | 29.6 | 13.7
15 | B13 | 4.85 | 5.16 | 6.17 | 1.27
16 | B14 | 2.82 | 3 | 16 | 5.66
17 | B15 | 3.21 | 3.41 | – | –

molecular target: T1, Biotin-FcγRIIB; assay: magnetic sorting on biotin-FcγRIIB with unlabelled activating FcγRs, NGS; Library2
Protocol: as §1, §2

Row | Molecule | Enrichment factor (percentage after sorting/percentage before sorting) | Increased factor (mutation enrichment factor/wild-type enrichment factor) | Percentage after sorting/unbinding percentage | Percentage before sorting/unbinding percentage
18 | B3 | 2.77 | 3.33 | 71.2 | 25.7
19 | B4 | 3.52 | 4.24 | 1090 | 311

molecular target: Biotin-FcγRIIB (human) (UniProt P31994); assay: NGS of 3T3 display library Cmix flow-sorted for FcγRIIB binding

Row | Molecule | enrichment factor, percentage after 2nd sorting/percentage after 1st sorting | enrichment factor, percentage after 3rd sorting/percentage after 2nd sorting | percentage after 1st sorting [%] | percentage after 2nd sorting [%] | percentage after 3rd sorting [%]
20 | human IgG2 anti-mouse CD40 surface displayed antibody, A235W/V266L/S298L/L328W | 70.1 | 4.67 | 0 | 0.05 | 0.22
